B1: Ab120 (antibody, human IgG4 S228P, kappa, V domains shown)
VH: QVQLVQSGAEVKKPGASVKVSCKVSGGTFSTFHIHWVRQAPGKGLEWMGGISAYSGSTIYAQKFQGRVTMTEDTSTDTAYMELSSLKSEDTAVYYCARARYVDDAFDIWGQGTMVTVSS
VL: DIQMTQSPSSVSASVGDRVTITCRASEDISNFLAWYQQKPGKAPKLLIYAASDLLSGVPSRFSGSGSGTDFTLTISSLQPEDFANYYCQKYISAPSFGGGTKVEIKR
B2: Ab133 (antibody, human IgG4 S228P, kappa, V domains shown)
VH: EVQLVESGGGLVQPGGSLRLSCAASGFTFSSYGMSWVRQAPGKGLELVASFTGSGGAYYPDSVKGRFTISRDNAKNSLYLQMNSLRAEDTAVYYCARDLLIRFLEWSHYYGMDVWGQGTTVTVSS
VL: DIVMTQSPLSLPVTPGEPASISCRSSQSLLHSSGHNFLHWYLQKPGQSPQLLIYEVSNRVSGVPDRFSGSGSGTDFTLKISRVEAEDVGVYYCQQQTQYPGTFGGGTKVEIKR
notes: human IgG4 in the EM experiment; also called Ab133 Human IgG4
B3: Ab130 (antibody, human IgG4 S228P, kappa, V domains shown)
VH: EVQLVESGGGLVQPGGSLRLSCAASGFTFTSYGMSWVRQAPGKGLELVASITGSGGETYYPDSVKGRFTISRDNAKNSLYLQMNSLRAEDTAVYYCARDLLVRFLEWSHYYGMDVWGQGTTVTVSS
VL: DIVMTQSPLSLPVTPGEPASISCRSSQSLLHSSGHNFLHWYLQKPGQSPQLLIYETSNRAPGIPDRFSGSGSGTDFTLKISRVEAEDVGVYYCQQATQFPRPFGGGTKVEIKR
B4: Ab105 (antibody, human IgG4 S228P, kappa, V domains shown)
VH: EVQLVESGGGLVQPGGSLRLSCAASGSAFSSYGMSWVRQAPGKGLELVASIGGTGATYYPDSVKGRFTISRDNAKNSLYLQMNSLRAEDTAVYYCARDLLVRFLEWGHYYGMDVWGQGTTVTVSS
VL: DIVMTQSPLSLPVTPGEPASISCRSSQSLLHSSGYNFLHWYLQKPGQSPQLLIYAASSRAPGIPDRFSGSGSGTDFTLKISRVEAEDVGVYYCMHGGQGPTFGGGTKVEIKR
B5: Ab137 (antibody, human IgG4 S228P, kappa, V domains shown)
VH: EVQLVESGGGLVQPGGSLRLSCAASGFTFSSYGMSWVRQAPGKGLELVASFTGSGGTYYPDSVKGRFTISRDNAKNSLYLQMNSLRAEDTAVYYCARDLLIRFLEWGHYYGMDVWGQGTTVTVSS
VL: DIVMTQSPLSLPVTPGEPASISCRSSQSLLHSSGHNFLHWYLQKPGQSPQLLIYEVSNRVSGVPDRFSGSGSGTDFTLKISRVEAEDVGVYYCMQQTQYPPTFGGGTKVEIKR
B6: Ab139 (antibody, human IgG4 S228P, kappa, V domains shown)
VH: EVQLVESGGGLVQPGGSLRLSCAASGFTFSSYGMSWVRQAPGKGLELVASFTGSGAAYYPDSVKGRFTISRDNAKNSLYLQMNSLRAEDTAVYYCARDLLIRFLEWSHYYGMDVWGQGTTVTVSS
VL: DIVMTQSPLSLPVTPGEPASISCRSSQSLLHSSGHNFLHWYLQKPGQSPQLLIYESSNRVSGVPDRFSGSGSGTDFTLKISRVEAEDVGVYYCQQQTQYPPTFGGGTKVEIKR
B7: Ab131 (antibody, human IgG4 S228P, kappa, V domains shown)
VH: EVQLVESGGGLVQPGGSLRLSCAASGSAFSSYGMSWVRQAPGKGLELVASIGGTGATYYPDSVKGRFTISRDNAKNSLYLQMNSLRAEDTAVYYCARDLLVRFLEWGHYYGMDVWGQGTTVTVSS
VL: DIVMTQSPLSLPVTPGEPASISCRSSQSLLHSSGYNFLHWYLQKPGQSPQLLIYAASSRAPGIPDRFSGSGSGTDFTLKISRVEAEDVGVYYCQHGGQGPTFGGGTKVEIKR
B8: Ab138 (antibody, human IgG4 S228P, kappa, V domains shown)
VH: EVQLVESGGGLVQPGGSLRLSCAASGFTFTSYGMSWVRQAPGKGLELVASITGSKGETYYPDSVKGRFTISRDNAKNSLYLQMNSLRAEDTAVYYCARDLLVRFLEWSHYYGMDVWGQGTTVTVSS
VL: DIVMTQSPLSLPVTPGEPASISCRSSQSLLHSSGHNFLHWYLQKPGQSPQLLIYETSNRAPGIPDRFSGSGSGTDFTLKISRVEAEDVGVYYCQQATQFPRPFGGGTKVEIKR
B9: Ab140 (antibody, human IgG4 S228P, kappa, V domains shown)
VH: EVQLVESGGGLVQPGGSLRLSCAASGFTFSSYGMSWVRQAPGKGLELVASFTGSGGTYYPDSVKGRFTISRDNAKNSLYLQMNSLRAEDTAVYYCARDNLIRFLEWSHYYGMDVWGQGTTVTVSS
VL: DIVMTQSPLSLPVTPGEPASISCRSSQSLLHSSGHNFLHWYLQKPGQSPQLLIYEVSNRESGVPDRFSGSGSGTDFTLKISRVEAEDVGVYYCQQQTQYPPTFGGGTKVEIKR
B10: Ab102 (antibody, human IgG4 S228P, kappa, V domains shown)
VH: EVQLVESGGGLVQPGGSLRLSCAASGFTFTSYGMSWVRQAPGKGLELVASITGSGGETYYPDSVKGRFTISRDNAKNSLYLQMNSLRAEDTAVYYCARDLLVRFLEWSHYYGMDVWGQGTTVTVSS
VL: DIVMTQSPLSLPVTPGEPASISCRSSQSLLHSSGHNFLHWYLQKPGQSPQLLIYETSNRAPGIPDRFSGSGSGTDFTLKISRVEAEDVGVYYCMQATQFPRPFGGGTKVEIKR
B11: Ab125 (antibody, human IgG4 S228P, kappa, V domains shown)
VH: EVQLVQSGAEVKKPGESLKISCKGSGNRISDYWMNWVRQVPGKGLEWMGNIYPGYSDATYNRKFKGQVTISADKSISTAYLQWSSLKASDTAIYYCARGRDGYNYFAAFDIWGQGTMVTVSS
VL: EIVLTQSPATLSLSPGERATLSCRASQSVASSYLAWYQQKPGQAPRLLIYDTSSRAAGIPARFSGSGSGTDFTLTISSLEPEDFAVYYCHQYGSSLTTFGGGTKVEIKR

Tests used:
mouse GDF-11 = mouse GDF-11 (mouse, UniProt Q9Z1W4 297-405, limits assumed); test: plate binding assay, OD 450 nm, one antibody concentration that is not given, on Mu-GDF-11 (method not described in the text)
human GDF-11 = human GDF-11 (human, UniProt O95390 299-407, limits assumed); test: plate binding assay, OD 450 nm, one antibody concentration that is not given, on Hu-GDF-11 (method not described in the text)
murine pro-myostatin [1] = molecular target: T1, murine pro-myostatin (mouse, UniProt O08689 25-376, biotinylated (in the SPR assay)); test: plate binding assay, OD 450 nm, antibody titrated 0.0003 to 100 nM, panel 'Mu-Pro-GDF-8 Plate 2' (method not described in the text)
T1 construct: also called proGDF8 (mouse); mouse pro-myostatin

murine pro-myostatin [2] = molecular target: T1, murine pro-myostatin; test: SPR Biacore 8K, biotin-antigen captured
cyno pro-myostatin = molecular target: T2, cyno pro-myostatin (cynomolgus monkey, Biotinylated for capture in the SPR assay (site not stated). The native form is a disulfide-linked homodimer, partly furin-cleaved; one chain is given.); test: SPR Biacore 8K, biotin-antigen captured
T2 construct: also called proGDF8 (cynomolgus); cynomolgus monkey pro-myostatin

human pro-myostatin [3] = molecular target: T3, human pro-myostatin (human, UniProt O14793 24-375, biotinylated (in the SPR assay)); test: SPR Biacore 8K, biotin-antigen captured
T3 construct: Disulfide-linked homodimer; also called proGDF8 (human)

[4] = molecular target: T4, recombinant human latent myostatin (human, UniProt O14793 24-375, biotinylated (in the Octet pH assay only)); test: BLI Octet Red384, biotin human latent myostatin on streptavidin tips
T4 construct: also called biotinylated human latent myostatin
Protocol: (§1) Binding was performed at pH 7.4 and dissociation at pH 5.5 in an Octet Red384@assay. Streptavidin biosensors were baselined in 1x kinetics buffer (KB) (Sartorius) for one minute, then loaded with 100 nM biotinylated human latent myostatin for five minutes, followed by another baseline step of one minute in 1x KB. Binding of test antibodies was performed for five minutes and then dissociation was performed in PBS at either pH 7.4 or pH 5.5 for five minutes. Analysis was performed using a partial fit, in which full dissociation was projected. Kd at pH 5.5 was divided by Kd at pH 7.4 to calculate pH sensitivity.

[5] = molecular target: T4, recombinant human latent myostatin; test: cell-based or functional assay
human pro-myostatin [6] = molecular target: T3, human pro-myostatin; test: Ab KD, summary Table 11; method and antigen not stated there
[7] = molecular target: T4, recombinant human latent myostatin; test: cell-based or functional assay; remark: listed apart in the source
[8] = molecular target: T4, recombinant human latent myostatin; test: cell-based or functional assay; remark: listed apart in the source
human pro-myostatin [9] = molecular target: T3, human pro-myostatin; test: cell-based or functional assay
[10] = molecular target: T4, recombinant human latent myostatin; test: BLI (Octet Red384): streptavidin biosensors loaded with biotinylated human latent myostatin, antibody association 300 s, dissociation in PBS at pH 7.4 or pH 5.5
Protocol: as §1

murine pro-myostatin [11] = molecular target: T1, murine pro-myostatin; test: plate binding assay, OD 450 nm, antibody titrated 0.0003 to 100 nM, panel 'Mu-Pro-GDF-8 Plate 3' (method not described in the text)

Chain of human GDF-11 (O95390 299-407 limits assumed): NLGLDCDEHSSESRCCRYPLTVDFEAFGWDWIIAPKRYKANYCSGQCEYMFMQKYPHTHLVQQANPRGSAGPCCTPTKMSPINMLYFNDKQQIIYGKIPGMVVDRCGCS
Chain of mouse GDF-11 (Q9Z1W4 297-405 limits assumed): as the sequence (O95390 299-407 limits assumed) above

Row | Binder | Kd (murine pro-myostatin [2]) | koff (murine pro-myostatin [2]) | kon (murine pro-myostatin [2]) | Kd (human pro-myostatin [3]) | koff (human pro-myostatin [3]) | kon (human pro-myostatin [3]) | fold difference in off-rate (Kd at pH 5.5 / Kd at pH 7.4) [4] | Kd (human pro-myostatin [6]) | IC50 (nM) Latent + mTLL2 [7] | mTLL2 IC50 [8] | fold difference in off-rate (Kd at pH 5.5 / Kd at pH 7.4) [10] | other results
1 | B1 | – | – | – | – | – | – | – | – | – | – | – | binding result (mouse GDF-11): no binding; binding result (human GDF-11): no binding; binding result (murine pro-myostatin [1]): binds
2 | B2 | 54 pM | 0.000162 s⁻¹ | 3.01e+06 M⁻¹ s⁻¹ | 41 pM | 0.000116 s⁻¹ | 2.84e+06 M⁻¹ s⁻¹ | 17.5 fold | 41 pM | 0.161 nM | 161 pM | – | Kd (cyno pro-myostatin): 38.3 pM; koff (cyno pro-myostatin): 0.000109 s⁻¹; kon (cyno pro-myostatin): 2.86e+06 M⁻¹ s⁻¹; IC50 of inhibition of myostatin activation by mTLL-2 (functional ELISA, FIG. 1B) [5]: 160 pM
3 | B3 | – | – | – | – | – | – | 10.6 fold | 350 pM | – | 330 pM | – | IC50 of inhibition of myostatin activation by mTLL-2 (functional ELISA, FIG. 1A) [5]: 310 pM; IC50 of inhibition of myostatin activation by mTLL-2 (functional ELISA, FIG. 1B) [5]: 300 pM
4 | B4 | 46 pM | 0.000276 s⁻¹ | 5.99e+06 M⁻¹ s⁻¹ | 51 pM | 0.000247 s⁻¹ | 4.89e+06 M⁻¹ s⁻¹ | 0.8 fold | 229 pM | 0.25 nM | 250 pM | – | Kd (cyno pro-myostatin): 44 pM; koff (cyno pro-myostatin): 0.000233 s⁻¹; kon (cyno pro-myostatin): 5.26e+06 M⁻¹ s⁻¹; IC50 (nM) Pro + Furin (human pro-myostatin [9]): 0.356 nM
5 | B5 | – | – | – | – | – | – | – | – | – | – | 26 fold | –
6 | B6 | – | – | – | 121 pM | 0.0023 s⁻¹ | 1.9e+07 M⁻¹ s⁻¹ | – | – | – | – | 16.3 fold | –
7 | B7 | – | – | – | – | – | – | 0.9 fold | 155 pM | – | 208 pM | – | –
8 | B8 | – | – | – | 110 pM | 0.000577 s⁻¹ | 5.27e+06 M⁻¹ s⁻¹ | – | – | – | – | 7.9 fold | –
9 | B9 | – | – | – | 109 pM | 0.000711 s⁻¹ | 6.53e+06 M⁻¹ s⁻¹ | – | – | – | – | 10.4 fold | –
10 | B10 | 82 pM | 0.0005 s⁻¹ | 6.11e+06 M⁻¹ s⁻¹ | 58 pM | 0.000376 s⁻¹ | 6.49e+06 M⁻¹ s⁻¹ | 9.3 fold | 329 pM | 0.162 nM | 346 pM | – | Kd (cyno pro-myostatin): 49 pM; koff (cyno pro-myostatin): 0.000335 s⁻¹; kon (cyno pro-myostatin): 6.8e+06 M⁻¹ s⁻¹; IC50 (nM) Pro + Furin (human pro-myostatin [9]): 0.211 nM
11 | B11 | 125 pM | 0.000411 s⁻¹ | 3.29e+06 M⁻¹ s⁻¹ | – | – | – | – | – | 0.202 nM | – | – | binding result (mouse GDF-11): no binding; binding result (human GDF-11): no binding; EC50 (read off the curve) (murine pro-myostatin [11]): ~200 pM
